In patent US11149086B2, “KV1.3 binding immunoglobulins” (Ablynx N.V., priority 2014, dated 2021):

Key:
cyno Kv1.3 = experiment: 125I-margatoxin competition on cyno Kv1.3 expressing CHO cells; assay type: binding, cynomolgus; conditions: 150 pM I125 margatoxin
Description: Periplasmic extracts were screened in a radioligand 125I-margatoxin competition assay to assess the blocking capacity of the expressed Nanobodies. Cynomolgous Kv1.3 was presented on CHO cells overexpressing Kv1.3.
In order to detect binding of margatoxin to cell expressed Kv1.3, a radiolabeled toxin was used (125I-margatoxin; MgTX; Perkin Elmer, NEX083). To setup the assay, first a titration series of the radiolabeled 125I-margatoxin was performed on the CHO-cyKv1.3 and parental CHO K1 cells. To have maximum sensitivity of the screening, the EC30 concentration (150 pM) was chosen for competition during screening and later on, also characterization.
In brief, 35 μl of periplasmic extract was added to 150 pM labeled margatoxin (50 μl) and 40000 CHO-cyKv1.3 cells that were seeded the day before in a poly-D-lysine coated 96-well plate (BD Biocoat, Cat354620) in a total of 200 μl. After two hours incubation at RT, cells were washed two times before read out was performed with 100 μl/well MicroScint-20 (Perkin Elmer) on a TopCount device (Perkin Elmer).
As reference compounds, a dilution series of ShK-1aJ (Smartox, #08SHK001) and unlabeled margatoxin (Alamone labs, Cat RTM-325) were included. […] For each sample the percentage block was determined using the control samples to determine the assay window. […]

human Kv1.3 = biological target: T1, human Kv1.3 (Homo sapiens, UniProt P22001); experiment: FACS competition with FAM-labeled ShK on HEK293H human Kv1.3 cells; assay type: binding
T1 construct: cell lines stably expressing the full length human Kv1.3 channel
T1 sequence (P22001 whole entry): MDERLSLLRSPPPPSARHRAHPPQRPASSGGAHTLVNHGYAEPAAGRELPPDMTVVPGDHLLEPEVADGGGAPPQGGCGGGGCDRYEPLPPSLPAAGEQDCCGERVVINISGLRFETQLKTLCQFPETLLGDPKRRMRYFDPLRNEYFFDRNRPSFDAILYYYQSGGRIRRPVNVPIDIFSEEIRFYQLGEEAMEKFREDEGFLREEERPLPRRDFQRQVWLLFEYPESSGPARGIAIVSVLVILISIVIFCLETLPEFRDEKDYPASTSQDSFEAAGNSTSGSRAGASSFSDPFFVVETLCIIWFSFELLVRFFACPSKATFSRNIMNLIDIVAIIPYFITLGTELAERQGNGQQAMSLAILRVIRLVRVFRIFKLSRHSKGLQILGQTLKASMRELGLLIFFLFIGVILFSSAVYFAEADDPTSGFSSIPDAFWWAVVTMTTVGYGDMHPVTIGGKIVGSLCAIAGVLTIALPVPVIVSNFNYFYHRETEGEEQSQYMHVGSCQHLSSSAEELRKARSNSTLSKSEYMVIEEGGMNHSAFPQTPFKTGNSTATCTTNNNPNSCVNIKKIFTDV
Description: To evaluate the competition between the toxin ShK and the Nanobodies for binding to Kv1.3, a FACS competition experiment was performed using HEK293H cells overexpressing human Kv1.3 and the parental HEK293H cells as background cell line. As detection reagent, FAM-labeled ShK was used (6-FAM-AEEAc-Stichodactyla helianthus Neurotoxin (ShK) (Bachem, H-6088, 1046522, PRT00000366/01/01)). To setup the assay, first a titration series of the labeled Shk-FAM was performed on the HEK293H Kv1.3 cells in order to determine the EC50 value for binding.
In brief, a dilution series of ShK or Nanobody were added together with the labeled toxin to 200 000 cells in a 96-well plate. After 90 minutes incubation at 4° C., cells were washed three times before read out was performed on a FACS Canto (Becton Dickinson). First a gate was set on the intact cells as determined from the scatter profile. Next, dead cells were gated out by their fluorescence profile from the TOPRO stain (5 nM, Molecular probes, T3605). […] The percentage of inhibition for Nanobodies blocking the interaction of ShK to human Kv1.3 is depicted in Table B-11.

Chain of cyno Kv1.3 (as listed by the source): as the sequence (P22001 whole entry) above, with R4H, P23A, H38P, R47P, T269P, E275D, S284A, R285A, S497A counted along it

B1: A019400003: monovalent anti-Kv1.3 Nanobody, family 1 (protein)
VHH: EVQLVESGGGLVQAGGSLSLSCTASGGTFRNFGMGWFRQAQGKEREFVAAISRTGGHTYYQDSVKGRFTISKDNAKNILSLQMNSLKPEDTAVYYCAARFRFGDGTYYYQRAFYDFWGQGTQVTVSS
modifications: Nanobody sequence
Q: For B1, which “block of I125 margatoxin binding, in words” value (cyno Kv1.3) is on record?
A: completely block

Q: What about the “blocking of FAM labeled ShK binding to Kv1.3, in words” value (human Kv1.3; 70 nM ShK-FAM) of the same molecule?
A: only partially blocked

Q: What about the “% inhibition of ShK-Fam binding” value (human Kv1.3; 70 nM ShK-Fam (100x EC50), HEK 293H hu Kv1.3 cells) of the same molecule?
A: 87.13%
